Results reported in US10273305B2, “Bispecific CXCR4-CD4 polypeptides with potent anti-HIV activity” (Ablynx N.V., priority 2015, dated 2019).

Key:
[1] = biological target: interaction of CD4 with the viral gp120 protein (Homo sapiens, UniProt P01730); experiment: ELISA-based competition of CD4-gp120 interaction; type: binding; conditions: 500 nM Nanobody; gp120 HIV-1 IIIB
Procedure: Besides its role on T-cells, CD4 also serves as primary receptor for HIV entry. Therefore purified CD4 Nanobodies were analysed for the capacity to block the interaction of CD4 with the viral gp120 protein. Monovalent His-tagged Nanobodies were purified from periplasmic extracts by affinity and desalting chromatography and used in an ELISA-based competition setup. In short, 1 μg/ml of gp120 HIV-1 IIIB (Immunodiagnostic) was captured by 20 μg/ml of sheep anti-gp120 antibody D7324 (Aalto Bio Reagents) previously coated in 96 well Maxisorp microtiter plates (Nunc) and blocked with 1% casein in PBS. In parallel, 0.5 μg/ml of biotinylated CD4 was incubated with 500 nM of the different purified Nanobodies in 100 μl 0.1% Casein/PBS. After 1 hour, the biotinylated CD4-Nanobody pre-mixes were incubated 1 hour with the captured gp120. Bound biotinylated CD4 was detected using HRP-conjugated Extravidin (Sigma E2886). A blocking mouse anti-CD4 IgG2a antibody (Diaclone, clone B-A1 cat#854.030.000) was used as positive control. Blocking activity was determined as loss of O.D. signal, as compared to wells where no Nanobody was added.

CXCR4 [2] = biological target: T1, CXCR4 (Homo sapiens, UniProt P61073); experiment: [125I]-CXCL12 radio-ligand displacement on membranes of HEK293 cells transfected with CXCR4; type: binding; conditions: 75 pM [125I]-CXCL12
T1 sequence (P61073 whole entry): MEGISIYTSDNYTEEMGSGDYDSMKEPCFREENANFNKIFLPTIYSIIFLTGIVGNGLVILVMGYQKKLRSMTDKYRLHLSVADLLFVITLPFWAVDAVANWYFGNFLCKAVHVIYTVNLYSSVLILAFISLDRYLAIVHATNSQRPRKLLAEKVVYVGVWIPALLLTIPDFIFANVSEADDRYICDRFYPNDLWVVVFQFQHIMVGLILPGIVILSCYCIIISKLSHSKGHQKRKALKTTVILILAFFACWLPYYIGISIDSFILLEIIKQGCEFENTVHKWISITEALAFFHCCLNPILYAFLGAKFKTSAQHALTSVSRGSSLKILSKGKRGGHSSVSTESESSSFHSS
Procedure: To this end, CXCR4 Nanobodies were analysed for their binding to HEK293T-CXCR4 cells, and their ability to compete with the ligand CXCL12 (or SDF-1a) for receptor binding in a radio-ligand displacement assay. The sequences of the respective CXCR4 Nanobodies are depicted in Table 3.1A.
Non-specific binding was determined in presence of 100 nM cold SDF-1. The assay was performed three times, and average percentages of SDF-1 inhibition and Ki values were calculated (Table 3.1B).

[3] = system: HIV-1 CI#17 clinical isolate (clade B); experiment: HIV-1 CI#17 infection of PBMCs, p24; type: cell-based; conditions: PBMC, average 2 donors
CXCR4 [4] = biological target: T1, CXCR4; experiment: Displacement of biotinylated SDF-1 on Caki cells expressing hCXCR4, flow cytometry; type: binding; conditions: 30 nM biotinylated SDF-1
Procedure: In addition, CXCR4 Nanobodies were analysed for ligand competition by displacement of biotinylated SDF-1 on transient transfected Caki cells expressing hCXCR4 in flow cytometry. To this end, serial dilutions of Nanobodies were pre-incubated with 30 nM of biotinylated SDF-1 (R&D Systems Fluorikine kit) and incubated to Caki-CXCR4 cells for 1 hour at 4C, after which ligand binding was visualised using extravidin-PE. The biotin-SDF-1 competitor concentration used in this assay was below the EC50 value obtained in dose-titration, where IC50 values should reflect the Ki. Ligand displacement IC50 values were calculated, and compared to the NL4.3 (X4) neutralization potencies.

[5] = system: CXCR4-using (X4) HIV-1 clone NL4.3; experiment: microbe, parasite or virus in culture; type: cell-based; conditions: Example 10
CXCR4 [6] = biological target: T1, CXCR4; experiment: CXCL12-AF647 binding inhibition on SupT1 cells by flow cytometry; conditions: T-cells (SUPT-1); read-out: IC50 of blocking CXCL12AF647 binding to CXCR4

B1: 01B6: anti-CD4 Nanobody, SEQ ID NO: 17 (protein)
VHH: EVQLVESGGGLVQSGGSLRLSCAASGFTFSGYWMYWVRQAPGKGLEWVSAISPGGGSTYYPDSVKGRFTISRDNAKNTLYLQMNSLKPEDTALYYCASSLTATHTYEYDYWGQGTQVTVSS
modifications: Nanobody Sequence
blocking of in vitro interaction of CD4 with gp120 [1]: block

B2: 281E10: anti-CXCR4 Nanobody, SEQ ID NO: 6 (protein)
VHH: EVQLVESGGGLVQAGGSLRLSCKASGGTFNNYAMGWFRRAPGKEREFVAAITRSGVRSGVSAIYGDSVKDRFTISRDNVKNTLYLQMNTLKPEDTAVYTCAASAIGSGALRRFEYDYSGQGTQVTVSS
modifications: Nanobody Sequence
[125I] SDF-1 displacement on CXCR4-Hek pKi +/SEM (n = 3) (CXCR4 [2]): 9.21 +/− 0.12
IC50 [3]: 1.3 nM
IC90 [3]: 8.1 nM

B3: 281A6: anti-CXCR4 Nanobody, SEQ ID NO: 8 (protein)
VHH: EVQLVESGGGLVQTGGSLRLSCAASGGTFNNYAMGWFRRAPGKEREFVAAISRSGVRTGVSALYGDSVKDRFTISRDNAKNTLYLQMNKMKPEDTAVYTCAASAIGSGALRRFEYDSSGQGTQVTVSS
modifications: Nanobody Sequence
[125I] SDF-1 displacement on CXCR4-Hek pKi +/SEM (n = 3) (CXCR4 [2]): 8.63 +/− 0.02
IC50 [3]: 20 nM
IC90 [3]: 61 nM

B4: 281A5: anti-CXCR4 Nanobody, SEQ ID NO: 5 (protein)
VHH: EVQLVESGGGLVQAGGSLRLSCAASGRTFNNYAMGWFRRAPGKEREFVAAITRSGVRSGVSAIYGDSVKDRFTISRDNAKNTLYLQMNSLKPEDTAVYTCAASAIGSGALRRFEYDYSGQGTQVTVSS
modifications: Nanobody Sequence
[125I] SDF-1 displacement on CXCR4-Hek pKi +/SEM (n = 3) (CXCR4 [2]): 8.12 +/− 0.08
IC50 [3]: 12 nM
IC90 [3]: > 57 nM

B5: 281D4: anti-CXCR4 Nanobody, SEQ ID NO: 7 (protein)
VHH: EVQLVESGGGLVQAGGSLRLSCAASGGTFNNYAMGWFRRAPGKEREFVAAISRSGVRTGVSALYGDSVKDRFTISRDNAKNTLYLQMNKMKPEDTAVYTCAASAIGSGALRRFEYDSSGQGTQVTVSS
modifications: Nanobody Sequence
[125I] SDF-1 displacement on CXCR4-Hek pKi +/SEM (n = 3) (CXCR4 [2]): 8.27 +/− 0.05
IC50 [3]: 15 nM
IC90 [3]: 33 nM

B6: 15G11: anti-CXCR4 Nanobody, SEQ ID NO: 14 (protein)
VHH: EVQLVESGGGLVQAGDSLRVSCAASGRTSSYAMAWFRQAPGKEREFVGTISRTNSRTKYADFVEGRFTISRDNAKSTLSLQMTSLKPEDTAVYYCAAKWTGNSYHDYTWSKVDEYNVWGQGTQVTVSS
modifications: Nanobody Sequence
ligand displacement to CXCR4 (CXCR4 [4]): hardly any ligand displacement

B7: 15A1: anti-CXCR4 Nanobody, SEQ ID NO: 15 (protein)
VHH: EVQLVESGGGLVQAGGSLRLSCAASGRTFSRAAMGWFRQAPGKEREFVGCALSSAGSALTADSVKGRFTISRDNAKNMVYLQMNNLKPEDTAVYSCVAGGYCTRAGVYPYWGQGTQVTVSS
modifications: Nanobody Sequence
IC50 HIV1 neutralisation NL4.3 in MT-4 cells, panel of CXCR4 Nanobodies [5]: sub-nanoMolar range

B8: 283F1: anti-CXCR4 Nanobody, SEQ ID NO: 12 (protein)
VHH: EVQLVESGGGLVQAGGSLRLSCVASVNIFGSIAMAWYRQAPGKQRNLVASISSGGRINYADSRKGRFTISRDNTKNTVHLQMNSLEPEDTAVYYCAAGRIGQRTLTFTPDYWGQGTQVTVSS
modifications: Nanobody Sequence
[125I] SDF-1 displacement on CXCR4-Hek pKi +/SEM (n = 3) (CXCR4 [2]): 7.93 +/− 0.41
IC50 [3]: 2 nM
IC90 [3]: 9.1 nM

B9: 283B6: anti-CXCR4 Nanobody, SEQ ID NO: 10 (protein)
VHH: EVQLVASGGGLVQAGGSLRLSCAVSGTTFSVATLGWYRQAPGQQRALVADISSGGSTNYADSVRGRFTISRDNAKNLAYLQMNSLKPEDTAVYYCNARTSGWRTRSNYWGQGTQVTVSS
modifications: Nanobody Sequence
[125I] SDF-1 displacement on CXCR4-Hek pKi +/SEM (n = 3) (CXCR4 [2]): 8.78 +/− 0.24
IC50 [3]: 2.8 nM
IC90 [3]: 9.9 nM

B10: 283E2: anti-CXCR4 Nanobody, SEQ ID NO: 11 (protein)
VHH: EVQLVESGGGLVQAGGSLRLSCAVSGTTFSVATLGWYRQAPGQQRALVADISSGGSTNYADSVRGRFTISRDNAKNLAYLQMNSLKPEDTAVYYCNARTSGWRTRSNYWGQGTQVTVSS
modifications: Nanobody Sequence
[125I] SDF-1 displacement on CXCR4-Hek pKi +/SEM (n = 3) (CXCR4 [2]): 8.29 +/− 0.11
IC50 [3]: 3.7 nM

B11: 281F12-35GS-3F11: bispecific CXCR4-CD4 polypeptide, SEQ ID NO: 106 (protein)
chain: EVQLVESGGGLVQAGDSLRLSCAASGRAFSRYAMGWFRQAPGKEREFVAAIGWGPSKTNYADSVKGRFTISRDNAKNTVYLQMNTLKPEDTAVYSCAAKFVNTDSTWSRSEMYTYWGQGTQVTVSSGGGGSGGGGSGGGGSGGGGSGGGGSGGGGSGGGGSEVQLVESGGGSVQPGGSLTLSCGTSGRTFNVMGWFRQAPGKEREFVAAVRWSSTGIYYTQYADSVKSRFTISRDNAKNTVYLEMNSLKPEDTAVYYCAADTYNSNPARWDGYDFRGQGTQVTVSS
modifications: chains of the parent or of the whole protein
IC50 (CXCR4 [6]): 0.97 nM
